Experimental data: paper doi:10.1101/2024.08.15.608188, “Myosin forces elicit an F-actin structural landscape that mediates mechanosensitive protein recognition” (bioRxiv, 2024)

Target: the molecule itself
Test: cryo-EM structure; dual motor condition (surface-anchored myosin-5 and myosin-6, 1 μM ATP) on holey carbon grids; 0.6 μM F-actin, 1 μM α-catenin ABD applied in Motility Buffer (20 mM MOPS pH 7.4, 5 mM MgCl2, 0.1 mM EGTA, 1 mM DTT) for 30 s, 25 °C; sub-saturating α-catenin; consensus and 3DVA-sorted reconstructions

B1: C-terminal actin-binding domain (ABD) of human α-catenin (AA 664-906) (domain or fragment, UniProt P35221 664-906, looked up)
chain: IAGQSARAIMAQLPQEQKAKIAEQVASFQEEKSKLDAEVSKWDDSGNDIIVLAKQMCMIMMEMTDFTRGKGPLKNTSDVISAAKKIAEAGSRMDKLGRTIADHCPDSACKQDLLAYLQRIALYCHQLNICSKVKAEVQNLGGELVVSGVDSAMSLIQAAKNLMNAVVQTVKASYVASTKYQKSQGMASLNLPAVSWKMKAPEKKPLVKREKQDETQTKIKRASQKKHVNPVQALSEFKAMDSI
notes: Tags were removed with TEV protease; also called α-catenin ABD; αE-catenin ABD; source: E. coli Rosetta2(DE3), purified (Ni-NTA, TEV cleavage, anion exchange, size exclusion); not shown: 6XHis, N-terminal, cleaved; strep tag, N-terminal, cleaved
B1: binds.
